The source of these data is PMC5068707 (PLoS Pathogens, 2016).

Holding throughout (assay): ITC
In one experiment the target is T1, MARV VP30 CTD (146–281) (Marburg virus (MARV), UniProt P35258 146-281).
T1 chain: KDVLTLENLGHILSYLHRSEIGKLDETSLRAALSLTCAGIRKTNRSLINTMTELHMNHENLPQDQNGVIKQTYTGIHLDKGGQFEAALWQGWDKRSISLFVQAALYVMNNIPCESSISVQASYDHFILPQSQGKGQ

The target of experiment [1] is T2, SUDV VP30 CTD (139–288) (Sudan ebolavirus (SUDV), UniProt Q5XX03 139-288).
T2 chain: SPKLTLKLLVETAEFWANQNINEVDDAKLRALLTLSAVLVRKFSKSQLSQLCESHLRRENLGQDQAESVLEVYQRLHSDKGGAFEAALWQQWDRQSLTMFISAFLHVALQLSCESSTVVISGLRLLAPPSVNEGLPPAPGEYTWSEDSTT

Experiment [2] concerns the target T3, Ebola virus VP30 C-terminal domain (amino acids 139–288) (Ebola virus (EBOV), UniProt Q05323 139-288).
T3 chain: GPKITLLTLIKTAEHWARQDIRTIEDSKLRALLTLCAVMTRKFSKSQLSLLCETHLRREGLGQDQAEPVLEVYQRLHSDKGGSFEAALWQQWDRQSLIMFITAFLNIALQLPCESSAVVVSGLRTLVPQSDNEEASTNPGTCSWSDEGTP

Experiment [3] has as its target T4, SUDV VP30 CTD (139–288) (Sudan ebolavirus (SUDV), UniProt Q5XX03 139-288).
T4 sequence: T2 chain
The note with it: both partners purified.

A word on the Kd: it is the constant that tells how readily two partners part at equilibrium. For NTPTVAPPAPVYKDTGVD [SUDV NP peptide (600–617) fused to T4 lysozyme], the Kd in the experiment with MARV VP30 CTD (146–281) is 70 µM; with SUDV VP30 CTD (139–288) [1], 7.98 µM; in experiment [2], 9.5 µM.
Turning to EQGVDLPPPPLYAQEKRQ [MARV NP peptide (552–569) fused to T4 lysozyme], in the experiment with SUDV VP30 CTD (139–288) [1], the Kd is 27.1 µM.
Regarding RTPTVAPPAPVYRDHSEK [EBOV NP 600–617 fused to T4 lysozyme], in the experiment with SUDV VP30 CTD (139–288) [3], the binding result is reported as “binds”. Besides, the results for the dissociation constant (Kd) with MARV VP30 CTD (146–281) and with SUDV VP30 CTD (139–288) [1] were 35 µM and 4.9 µM, respectively.
